“Also recorded” adds a separate entry of the source. Square brackets hold non-standard residues; d marks the D form. Ends that are not written are not given here. Peptide text beside a SMILES is read from it. * marks the point of attachment. Biotin = O=C1N[C@H]2[C@H](CS[C@H]2CCCCC(=O)*)N1; Nle = CCCC[C@H](N)C(=O)O
What was measured:
SOCS-3 protein = assay: IL-6-induced expression of endogenous SOCS-3 protein in J774 cells; assay type: cell-based; conditions: LLnL 50 μM, 100 ng/ml murine IL-6, 30–180 min
Description: Mouse macrophage-like J774 cells were grown continuously in DME containing 10% bovine calf serum. The cells were washed once in PBS, twice with DME and starved for 1 h in DME containing 0.1% w/v low-endotoxin bovine serum albumin (BSA; Sigma). The proteasome inhibitor LLnL dissolved in dimethyl sulfoxide (DMSO) or DMSO was added to the cells for 15 min and the cells then stimulated with 100 ng/ml of murine IL-6 for the indicated times.
Proteins were immunoprecipitated with anti-myc (9E10; WEHI) and protein A-Sepharose or anti-FLAG antibody conjugated to Sepharose (KM5-IC7; WEHI) and separated by sodium dodecyl sulphate-polyacrylamide gel electrophoresis (SDS-PAGE) (Biorad, Hercules, Calif.) under reducing conditions. Proteins were then electrophoretically transferred to PVDF-Plus membranes (Micron Separations Inc. WestBorough, Mass.) and Western blotted as described (8).

elongins B and C [1] = target: T1, elongins B and C (Mus musculus, UniProt P62869+P83940); assay: Affinity purification of SOCS box-binding proteins from M1 cell lysates on GST-SOCS box Sepharose; design: species or system murine; conditions: mass spectrometry and Western blot, not seen with GST control
T1 construct: endogenous in cells; host or cells: M1 murine monocytic leukemic cells
Description: DNA fragments encoding the SOCS boxes from mouse SOCS-1 (residues 172–212) and SOCS-3 (residues 186–225) with an N-terminal linker sequence (EGKSSGSGSESKVD) (SEQ ID NO:3) were generated by PCR and cloned into the bacterial expression vector pGEX-2T (9). The GST fusion proteins were purified by affinity chromatography on glutathione Sepharose 4B (Amersham Pharmacia Biotec) and affinity resins were prepared by covalently coupling 1 mg of purified proteins to 1 ml of NHS-activated Sepharose resin (Amersham Pharmacia Biotec). Before use, the affinity resins were washed with elution buffer (0.5% w/v SDS, 50 mM DTT, 50 mM Tris-HCl, pH 8.0 and 150 mM NaCl) and equilibrated in lysis buffer (0.5% w/v Nonidet P-40, 10 mM Tris-HCl, pH 7.5 and 100 mM NaCl).
M1 cells (2×10^10) were lysed on ice for 30 min in 100 ml of lysis buffer supplemented with protease inhibitors (Complete Cocktail tablets; Boehringer Mannheim, Mannheim, Germany), 1 mM PMSF, 1 mM Na3VO4 and 1 mM NaF. The total cell lysate was centrifuged at 15,000 rpm (SS34 rotor) for 15 min at 4° C. and the clarified supernatant pre-incubated with 1 ml of GST-Sepharose resin for 2 h at 4° C. Half the GST-Sepharose-depleted M1 cell lysate was incubated with 1 ml of GST-SOCS-1 SOCS box- and the other half with GST-SOCS-3 SOCS box-Sepharose resin for 2 h at 4° C. […]

elongin C = target: T2, elongin C (Mus musculus, UniProt P83940); assay: Competition of SOCS-1 SOCS box/elongin C interaction in M1 cellular extracts; assay type: binding, murine; conditions: 80 mM competing non-biotinylated SOCS box peptide, SDS-PAGE, silver staining
T2 construct: endogenous in cells; host or cells: M1 murine monocytic leukemic cells (lysate)
Description: (§1) Following biotinylation, the peptide was reduced by treatment with 5 mM DTT. Typically, peptide was coupled to streptavidin-agarose resin (Pierce immunopure; 1–2 mg streptavidin/mL resin) by incubating equal volumes of resin and 1 mg/mL peptide for 1 h, followed by extensive washing.
(§2) M1 cells were lysed as previously described, except at a concentration of 10^9 cells/mL of lysis buffer. Streptavidin-agarose binding proteins were precleared from lysate by treating overnight at 4° C. with streptavidin-agarose resin (100 μL of resin/mL lysate). SOCS box peptides (SOCS-1, ASB-2 and WSB-2) were solubilized in water at 10 mg/mL, and aliquots of these, or water alone, were added to 350 μL fractions of cleared lysate, followed by incubation for 3 h at 4° C. These lysates were then added to 30 μL of SOCS-1 SOCS box peptide resin and incubated a further 2 h at 4° C. The resin was extensively washed with lysis buffer and bound proteins were eluted with 20 μL of 4×SDS sample buffer. Proteins were separated by SDS-PAGE on a 4–15% reducing gel.

elongins B and C [2] = target: T1, elongins B and C; assay: Affinity purification from M1 cellular extracts with biotinylated SOCS-1 SOCS box peptide on streptavidin-agarose; assay type: binding, murine; conditions: streptavidin-agarose bound peptide; mass spectrometry
Description: as §1, §2

T2 sequence (P83940 whole entry): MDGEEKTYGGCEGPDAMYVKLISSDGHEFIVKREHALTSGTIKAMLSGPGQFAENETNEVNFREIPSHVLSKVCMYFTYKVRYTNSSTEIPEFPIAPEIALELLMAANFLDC
T2 sequence (P62869 whole entry partner): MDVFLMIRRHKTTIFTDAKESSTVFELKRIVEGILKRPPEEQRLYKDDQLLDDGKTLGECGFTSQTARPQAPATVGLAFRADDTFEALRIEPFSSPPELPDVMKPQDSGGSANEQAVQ
T1 sequence (P83940 whole entry): as the sequence (P83940 whole entry) above
T1 sequence (P62869 whole entry): as the sequence (P62869 whole entry partner) above

| elongins B and C in eluates from affinity resin (elongins B and C [1]) | Compound | competition of elongin C binding to immobilized SOCS-1 SOCS box peptide (elongin C) | also measured |
| --- | --- | --- | --- |
| – | CCCC[C@@H](C=O)NC(=O)[C@H](CC(C)C)NC(=O)[C@H](CC(C)C)NC(C)=O [LLnL, N-acetyl-L-leucinyl-L-leucinyl-norleucinal] (Ac-Leu-Leu-[Nle]-aldehyde) | – | SOCS-3 protein levels after IL-6 stimulation (SOCS-3 protein): continual increase in SOCS-3 protein levels |
| both elongins were present in eluates | GST-SOCS-1 SOCS box: GST fusion protein with SOCS box of mouse SOCS-1 (residues 172–212) and N-terminal linker, coupled to Sepharose (EGKSSGSGSESKVDVRPLQELCRQRIVAAVGRENLARIPLNPVLRDYLSSFPFQI; not fully specified (N-terminus); also: coupled to Sepharose) | – | – |
| both elongins were present in eluates | GST-SOCS-3 SOCS box: GST fusion protein with SOCS box of mouse SOCS-3 (residues 186–225) and N-terminal linker, coupled to Sepharose (EGKSSGSGSESKVDVATLQHLCRKTVNGHLDSYEKVTQLPGPIREFLDQYDAPL; not fully specified (N-terminus); also: coupled to Sepharose) | – | – |
| – | SOCS-1 SOCS box peptide: Synthetic peptide fragment of murine SOCS-1 corresponding to the SOCS box and five upstream N-terminal residues (LRQRRVRPLQELCRQRIVAAVGRENLARIPLNPVLRDYLSSFPFQI) | competed for this interaction; also recorded: prevented binding of elongin C to immobilized SOCS-1 SOCS box | – |
| – | WSB-2 SOCS box peptide: Synthetic peptide fragment of murine WSB-2 corresponding to the SOCS box and five upstream N-terminal residues (TAPRVLSSLKHLCRKALRSFLTTYQVLALPIPKKMKEFLTYRTF) | competed for this interaction; also recorded: prevented binding of elongin C to immobilized SOCS-1 SOCS box | – |
| – | biotinylated SOCS-1 SOCS box peptide: SOCS-1 SOCS box peptide biotinylated at the amino terminus with sulfosuccinimidobiotin, coupled to streptavidin-agarose (Biotin-LRQRRVRPLQELCRQRIVAAVGRENLARIPLNPVLRDYLSSFPFQI; also: coupled to streptavidin-agarose) | – | interacting proteins identified in M1 cellular extracts (elongins B and C [2]): identification by mass spectrometry of elongins B and C as interacting proteins |

Source: US7078174B1, “Screening methods using SOCS box-containing peptides” (The Walter & Eliza Hall Institute of Medical Research, priority 1998, dated 2006)
